Results reported in article PMC3229523, “Identification of Lactoferricin B Intracellular Targets Using an Escherichia coli Proteome Chip” (PLoS ONE, 2011).
Ends that are not written are not given here. * marks the point of attachment. Biotin = O=C1N[C@H]2[C@H](CS[C@H]2CCCCC(=O)*)N1

Experiments:
Experiment in all cases: peptide or protein array; E. coli proteome chip: purified His-tagged proteins printed in duplicate on Fullmoon slides, blocked with 1% BSA; 10 nM N-terminal biotinylated LfcinB with 1% BSA, room temperature, 1 h; detected with DyLight 649-labeled streptavidin, ratio to DyLight 549-labeled anti-His antibody; ProCAT normalisation, local cut-off; triplicate chips
Details in all cases: both partners purified
YefE = biological target: T1, YefE (E. coli K-12, UniProt P37747 1-367)
T1 construct: YefE, E. coli K-12
T1 sequence (looked up): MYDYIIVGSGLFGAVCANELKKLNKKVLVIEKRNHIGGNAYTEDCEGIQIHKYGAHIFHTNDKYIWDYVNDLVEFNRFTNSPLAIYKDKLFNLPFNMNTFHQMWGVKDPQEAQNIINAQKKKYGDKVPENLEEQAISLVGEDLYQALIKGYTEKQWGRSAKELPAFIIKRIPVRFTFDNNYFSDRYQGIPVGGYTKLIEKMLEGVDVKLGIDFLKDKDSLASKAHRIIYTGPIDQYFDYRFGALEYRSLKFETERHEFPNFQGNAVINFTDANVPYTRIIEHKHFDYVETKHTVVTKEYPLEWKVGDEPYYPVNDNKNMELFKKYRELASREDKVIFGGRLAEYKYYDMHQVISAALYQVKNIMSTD

XerB = biological target: T2, XerB (E. coli K-12, UniProt P68767 1-503)
T2 construct: XerB, E. coli K-12
T2 sequence (looked up): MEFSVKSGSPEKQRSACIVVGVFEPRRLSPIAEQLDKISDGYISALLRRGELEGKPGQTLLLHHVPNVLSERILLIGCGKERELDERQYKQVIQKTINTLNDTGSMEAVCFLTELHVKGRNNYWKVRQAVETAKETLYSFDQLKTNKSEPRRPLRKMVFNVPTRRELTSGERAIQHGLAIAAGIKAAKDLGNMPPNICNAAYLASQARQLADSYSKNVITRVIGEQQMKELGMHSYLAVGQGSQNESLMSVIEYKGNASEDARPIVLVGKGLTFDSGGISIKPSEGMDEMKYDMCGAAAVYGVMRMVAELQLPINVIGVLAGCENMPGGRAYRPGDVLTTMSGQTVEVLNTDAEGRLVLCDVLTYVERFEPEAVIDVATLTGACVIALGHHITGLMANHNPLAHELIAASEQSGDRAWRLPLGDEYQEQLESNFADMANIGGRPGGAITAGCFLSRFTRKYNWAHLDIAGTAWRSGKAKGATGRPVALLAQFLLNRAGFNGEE

Sun = biological target: T3, Sun (E. coli K-12, UniProt P36929 1-429)
T3 construct: Sun, E. coli K-12
T3 sequence (looked up): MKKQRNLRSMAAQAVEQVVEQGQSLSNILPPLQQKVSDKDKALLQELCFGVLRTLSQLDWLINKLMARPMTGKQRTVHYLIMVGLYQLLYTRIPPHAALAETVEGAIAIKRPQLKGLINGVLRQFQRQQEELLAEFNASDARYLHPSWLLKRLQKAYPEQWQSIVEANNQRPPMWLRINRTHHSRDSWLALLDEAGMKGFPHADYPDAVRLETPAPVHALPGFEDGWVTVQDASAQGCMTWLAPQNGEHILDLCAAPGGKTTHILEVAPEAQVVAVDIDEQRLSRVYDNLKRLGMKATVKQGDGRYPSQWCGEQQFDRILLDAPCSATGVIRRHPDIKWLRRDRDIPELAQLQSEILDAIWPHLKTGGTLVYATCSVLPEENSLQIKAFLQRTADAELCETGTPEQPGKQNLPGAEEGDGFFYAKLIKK

RffH = biological target: T4, RffH (E. coli K-12, UniProt P61887 1-293)
T4 construct: RffH, E. coli K-12

YobG = biological target: T5, YobG (E. coli K-12, UniProt P64512 1-47)
T5 construct: YobG, E. coli K-12
T5 chain (looked up): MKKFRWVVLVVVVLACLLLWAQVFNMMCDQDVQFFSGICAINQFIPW

SrmB = biological target: T6, SrmB (E. coli K-12, UniProt P21507 1-444)
T6 construct: SrmB, E. coli K-12
T6 sequence (looked up): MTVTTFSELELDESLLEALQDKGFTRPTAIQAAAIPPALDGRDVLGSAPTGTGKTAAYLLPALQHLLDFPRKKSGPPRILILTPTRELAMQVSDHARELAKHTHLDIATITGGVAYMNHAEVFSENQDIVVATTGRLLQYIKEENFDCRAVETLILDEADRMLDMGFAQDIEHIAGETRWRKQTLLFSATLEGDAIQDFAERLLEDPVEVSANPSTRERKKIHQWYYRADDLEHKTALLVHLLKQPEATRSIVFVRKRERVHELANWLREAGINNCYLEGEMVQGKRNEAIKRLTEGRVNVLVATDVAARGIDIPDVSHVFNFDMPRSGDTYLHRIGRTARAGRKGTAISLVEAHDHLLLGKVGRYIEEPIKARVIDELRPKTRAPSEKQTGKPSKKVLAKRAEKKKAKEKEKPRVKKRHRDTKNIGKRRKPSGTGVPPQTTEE

Measured: binding result

T4 sequence (P61887 whole entry): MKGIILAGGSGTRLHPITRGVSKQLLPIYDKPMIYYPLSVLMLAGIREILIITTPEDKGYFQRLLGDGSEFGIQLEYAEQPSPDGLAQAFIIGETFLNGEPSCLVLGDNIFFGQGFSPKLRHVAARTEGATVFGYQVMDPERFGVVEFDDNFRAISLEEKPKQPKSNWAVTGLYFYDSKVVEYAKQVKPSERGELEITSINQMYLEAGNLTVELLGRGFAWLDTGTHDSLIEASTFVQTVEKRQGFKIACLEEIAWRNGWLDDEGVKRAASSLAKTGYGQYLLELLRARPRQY

B1: N-terminal biotinylated Lactoferricin B (peptide, UniProt P24627 36-60, looked up)
peptide: Biotin-FKCRRWQWRMKKLGAPSITCVRRAF
modifications: ends and bridges not checked
notes: lactoferricin B (LfcinB), cationic antimicrobial peptide of 25 amino acids; also called biotinylated LfcinB; biotin-labeled LfcinB; source: bought: Kelowna Inc
binds: all assays above
